{
  "source": "patent US20240116985A1",
  "about": "(published 2024)",
  "key": {"[1]": {"biological_target": "T1, B-cat-Halo (beta-catenin HaloTag construct expressed in HEK293 cells) (UniProt P35222 1-781)", "T1 sequence (looked up)": "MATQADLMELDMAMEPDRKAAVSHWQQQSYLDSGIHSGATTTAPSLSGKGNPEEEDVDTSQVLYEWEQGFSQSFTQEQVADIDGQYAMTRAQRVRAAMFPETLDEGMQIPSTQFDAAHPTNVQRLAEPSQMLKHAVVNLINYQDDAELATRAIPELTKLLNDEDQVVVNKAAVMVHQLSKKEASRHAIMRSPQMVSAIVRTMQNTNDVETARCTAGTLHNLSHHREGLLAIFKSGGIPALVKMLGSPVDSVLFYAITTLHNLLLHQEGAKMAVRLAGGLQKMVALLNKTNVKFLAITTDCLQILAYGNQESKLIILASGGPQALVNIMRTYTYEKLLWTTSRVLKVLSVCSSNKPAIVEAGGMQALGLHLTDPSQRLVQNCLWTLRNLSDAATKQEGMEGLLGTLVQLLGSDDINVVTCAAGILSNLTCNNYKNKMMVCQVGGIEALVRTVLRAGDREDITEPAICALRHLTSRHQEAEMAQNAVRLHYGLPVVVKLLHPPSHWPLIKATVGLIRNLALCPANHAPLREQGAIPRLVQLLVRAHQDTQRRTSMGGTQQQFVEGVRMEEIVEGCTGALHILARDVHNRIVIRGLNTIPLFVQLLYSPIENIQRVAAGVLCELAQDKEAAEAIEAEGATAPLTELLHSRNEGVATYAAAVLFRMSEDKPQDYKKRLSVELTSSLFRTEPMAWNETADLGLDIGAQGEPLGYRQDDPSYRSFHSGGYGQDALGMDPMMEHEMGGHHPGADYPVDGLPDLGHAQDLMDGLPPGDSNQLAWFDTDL", "experiment": "cell-based or functional assay"}, "[2]": {"biological_target": "T2, beta-catenin in DLD1 TCF/LEF luciferase reporter cells (UniProt P35222 2-781)", "T2 sequence (looked up)": "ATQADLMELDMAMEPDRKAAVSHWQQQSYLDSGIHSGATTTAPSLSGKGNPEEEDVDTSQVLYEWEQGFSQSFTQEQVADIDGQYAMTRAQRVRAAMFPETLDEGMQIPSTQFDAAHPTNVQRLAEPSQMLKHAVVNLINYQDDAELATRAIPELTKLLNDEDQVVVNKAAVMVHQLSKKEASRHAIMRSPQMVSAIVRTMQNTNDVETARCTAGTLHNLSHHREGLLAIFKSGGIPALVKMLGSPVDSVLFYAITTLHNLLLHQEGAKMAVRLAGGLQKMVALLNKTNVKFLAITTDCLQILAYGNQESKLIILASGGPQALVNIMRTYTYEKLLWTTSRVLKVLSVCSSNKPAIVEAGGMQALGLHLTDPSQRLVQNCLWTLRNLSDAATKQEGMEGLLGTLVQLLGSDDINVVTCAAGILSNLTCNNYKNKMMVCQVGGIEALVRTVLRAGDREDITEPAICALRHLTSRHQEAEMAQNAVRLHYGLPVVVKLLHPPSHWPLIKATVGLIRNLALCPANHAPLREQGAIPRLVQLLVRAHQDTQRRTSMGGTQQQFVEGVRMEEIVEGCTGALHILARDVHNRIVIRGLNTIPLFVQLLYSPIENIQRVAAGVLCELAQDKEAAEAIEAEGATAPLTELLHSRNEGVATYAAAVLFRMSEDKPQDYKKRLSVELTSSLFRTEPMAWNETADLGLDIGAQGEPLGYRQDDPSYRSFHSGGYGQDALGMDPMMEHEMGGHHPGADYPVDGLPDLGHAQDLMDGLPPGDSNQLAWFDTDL", "experiment": "cell-based or functional assay"}, "B-cat-Halo": {"biological_target": "T3, B-cat-Halo (UniProt P35222 1-781)", "T3 sequence (looked up)": "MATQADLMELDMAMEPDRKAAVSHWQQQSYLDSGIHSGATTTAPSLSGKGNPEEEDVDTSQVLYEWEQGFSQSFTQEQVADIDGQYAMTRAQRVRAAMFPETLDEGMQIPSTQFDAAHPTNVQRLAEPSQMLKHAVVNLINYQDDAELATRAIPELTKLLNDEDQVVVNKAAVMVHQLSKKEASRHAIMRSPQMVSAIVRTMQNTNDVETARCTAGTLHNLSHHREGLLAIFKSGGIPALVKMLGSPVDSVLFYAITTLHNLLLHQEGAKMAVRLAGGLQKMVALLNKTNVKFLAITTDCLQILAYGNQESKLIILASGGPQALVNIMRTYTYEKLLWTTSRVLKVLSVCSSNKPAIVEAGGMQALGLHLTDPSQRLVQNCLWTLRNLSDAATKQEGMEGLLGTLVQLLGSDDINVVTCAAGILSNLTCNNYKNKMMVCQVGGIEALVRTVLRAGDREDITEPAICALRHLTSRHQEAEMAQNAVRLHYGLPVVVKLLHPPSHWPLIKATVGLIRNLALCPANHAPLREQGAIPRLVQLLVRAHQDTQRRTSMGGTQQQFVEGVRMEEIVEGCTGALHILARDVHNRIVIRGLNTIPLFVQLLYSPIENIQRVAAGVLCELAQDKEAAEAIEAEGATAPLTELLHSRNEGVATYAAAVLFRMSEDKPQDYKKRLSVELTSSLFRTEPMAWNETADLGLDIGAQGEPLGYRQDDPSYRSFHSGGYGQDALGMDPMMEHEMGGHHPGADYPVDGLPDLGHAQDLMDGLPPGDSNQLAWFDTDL", "experiment": "cell-based or functional assay"}, "[3]": {"biological_target": "T4, beta-catenin in DLD1 TCF/LEF luciferase reporter cells (UniProt P35222 1-781)", "T4 sequence (looked up)": "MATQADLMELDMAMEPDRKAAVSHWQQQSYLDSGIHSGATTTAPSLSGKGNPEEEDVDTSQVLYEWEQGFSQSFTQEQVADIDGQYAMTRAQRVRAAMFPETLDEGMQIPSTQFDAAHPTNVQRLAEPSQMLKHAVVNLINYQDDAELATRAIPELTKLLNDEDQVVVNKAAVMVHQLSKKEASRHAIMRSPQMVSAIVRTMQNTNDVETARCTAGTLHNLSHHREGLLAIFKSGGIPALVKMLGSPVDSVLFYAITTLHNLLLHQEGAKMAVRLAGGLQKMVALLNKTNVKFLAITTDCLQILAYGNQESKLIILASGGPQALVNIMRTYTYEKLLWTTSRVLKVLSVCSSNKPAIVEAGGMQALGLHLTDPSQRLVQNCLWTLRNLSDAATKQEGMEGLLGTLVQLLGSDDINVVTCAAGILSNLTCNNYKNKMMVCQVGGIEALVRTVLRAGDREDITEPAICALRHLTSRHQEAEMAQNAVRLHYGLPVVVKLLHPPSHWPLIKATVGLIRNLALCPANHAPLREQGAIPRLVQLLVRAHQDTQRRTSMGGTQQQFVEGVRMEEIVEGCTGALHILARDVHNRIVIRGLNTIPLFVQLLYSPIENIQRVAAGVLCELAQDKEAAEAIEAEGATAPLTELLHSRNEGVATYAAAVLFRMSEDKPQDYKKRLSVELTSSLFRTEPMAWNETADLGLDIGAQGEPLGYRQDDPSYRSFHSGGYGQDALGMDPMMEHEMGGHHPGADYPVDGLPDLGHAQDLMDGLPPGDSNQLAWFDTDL", "experiment": "cell-based or functional assay"}, "[4]": {"biological_target": "T5, full-length beta-Catenin (Uniprot ID P35222) (Homo sapiens (Human), UniProt P35222 1-781)", "T5 construct": "also called bCat; B-Catenin", "T5 sequence": "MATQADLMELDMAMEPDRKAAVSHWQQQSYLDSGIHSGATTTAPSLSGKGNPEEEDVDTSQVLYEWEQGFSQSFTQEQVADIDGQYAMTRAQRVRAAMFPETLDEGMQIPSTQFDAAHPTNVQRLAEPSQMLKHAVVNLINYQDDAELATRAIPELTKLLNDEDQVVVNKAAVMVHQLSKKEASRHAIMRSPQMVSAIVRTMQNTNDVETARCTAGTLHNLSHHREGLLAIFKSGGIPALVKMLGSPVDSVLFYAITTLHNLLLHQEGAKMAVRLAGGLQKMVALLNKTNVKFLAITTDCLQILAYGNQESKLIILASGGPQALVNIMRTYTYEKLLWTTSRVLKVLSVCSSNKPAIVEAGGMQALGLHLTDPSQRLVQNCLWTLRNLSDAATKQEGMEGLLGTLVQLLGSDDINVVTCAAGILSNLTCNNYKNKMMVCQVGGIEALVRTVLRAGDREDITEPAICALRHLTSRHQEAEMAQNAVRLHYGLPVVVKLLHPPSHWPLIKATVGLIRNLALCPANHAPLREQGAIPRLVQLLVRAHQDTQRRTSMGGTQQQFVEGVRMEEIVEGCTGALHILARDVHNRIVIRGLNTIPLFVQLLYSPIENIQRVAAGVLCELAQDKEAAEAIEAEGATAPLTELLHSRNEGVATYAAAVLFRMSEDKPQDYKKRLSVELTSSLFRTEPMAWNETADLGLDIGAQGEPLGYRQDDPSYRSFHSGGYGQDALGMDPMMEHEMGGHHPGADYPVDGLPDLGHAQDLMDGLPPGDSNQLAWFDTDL", "experiment": "fluorescence polarization competition; peptide titrated against full-length beta-catenin + 5FAM-TCF4(10-53)", "description": "The plate was incubated protected from light for 60 minutes at 20° C. prior to read. Reads were performed on a CLARIOstar plate reader (BMG Labtech) in duplicate, and data were fitted to a 1:1 binding model with hill slope using an in-house script. All provided concentrations are final concentrations."}},
  "note": "Starred links: 1 amine or outer side, 2 acyl side, 3 side chain; linkers in the order of their positions; H or OH if unused. Positions of bridges follow the written chain, without caps; N, C: chain ends. Non-standard residues stand in square brackets, D forms with d. Primed or numbered codes have the meaning given here. *: point of attachment. PyrS2″ = (S)-3-amino-1-((pent-4-en-1-yloxy)carbonyl)pyrrolidine-3-carboxylic acid (stapling residue), C=CCCCOC(=O)N1CC[C@@](N[*:1])(C(=O)[*:2])C1; B5(4) = 2,2-bis(4-pentenyl)glycine = 2-amino-2-(pent-4-en-1-yl)hept-6-enoic acid (stitching residue), C=CCCCC(CCCC=C)(N[*:1])C(=O)[*:2]; B5(5) = 2,2-bis(4-pentenyl)glycine, 2-amino-2-(pent-4-en-1-yl)hept-6-enoic acid (stitching residue), C=CCCCC(CCCC=C)(N[*:1])C(=O)[*:2]; PyrS2 = (S)-3-amino-1-((pent-4-en-1-yloxy)carbonyl)pyrrolidine-3-carboxylic acid, C=CCCCOC(=O)N1CC[C@@](N[*:1])(C(=O)[*:2])C1; Phe(3-COOH) = N[C@@H](Cc1cccc(C(=O)O)c1)C(=O)O; 2F3MeF = Cc1cccc(C[C@H](N[*:1])C(=O)[*:2])c1F; Bta = N[C@@H](Cc1csc2ccccc12)C(=O)O; αAllylPro = C=CC[C@@]1(C(=O)O)CCCN1; tBuAla = CC(C)(C)C[C@H](N)C(=O)O; 3Thi = N[C@@H](Cc1ccsc1)C(=O)O; S8 = C=CCCCCCC[C@](C)(N)C(=O)O; Ms = CS(=O)(=O)*",
  "data": [
    {"binder": "Ac-[αAllylPro]D[tBuAla][B5(4)]D[Phe(3-COOH)]QAFL[PyrS2″][2F3MeF][Bta]A-NH2 (staple 1-4, 4-11)", "note": "[I-2057]", "values": [
      {"measurement": "NanoBRET Abs IC50", "setting": "[1]", "value": 1.5, "unit": "µM"},
      {"measurement": "DLD1 4% Abs IC50", "setting": "[2]", "value": 4, "unit": "µM"}
    ]},
    {"binder": "Ac-[αAllylPro]D[tBuAla][B5(4)]D[Phe(3-COOH)]AAFL[PyrS2][3Thi][Bta]NLLLLL-NH2 (staple 1-4, 4-11; also: later eluting staple isomer)", "note": "[I-2280]", "values": [
      {"measurement": "NanoBRET Abs IC50", "setting": "B-cat-Halo", "value": "> 20", "unit": "µM"},
      {"measurement": "DLD1 4% Abs IC50", "setting": "[3]", "value": "> 20", "unit": "µM"}
    ]},
    {"binder": "Ms-[αAllylPro]DI[B5(5)]DEAAFQ[S8]F[Bta]Q-NH2 (staple 1-4, 4-11, separate staple-isomer composition (later eluting HPLC peak); also called MeSO2-PL3-Asp-Ile-B5-Asp-Glu-Ala-Ala-Phe-Gln-S8-Phe-BztA-Gln-NH2)", "note": "[I-711]", "values": [
      {"measurement": "IC50", "setting": "[4]", "value": 0.088, "unit": "µM"}
    ]}
  ]
}
